This experiment in a line: Activity of AsGT2 towards salicylate (radioactive TLC assay and LC-MS assay). It is filed as biochemical. The arrangement: key: A “+” denotes activity. The settings on record: acceptor substrate salicylate; sugar donor L-arabinose; recombinant AsGT2 expressed in E. coli. On the procedure:
Radioactive assays with a complex acceptor substrate were used to detect low level activity with pure or enriched substrates. The assays contained 4 μl ^14C-UDP-glucose, 25 μl 50 mM potassium phosphate buffer pH 7.6, 0.25 μl 100 mM acceptor substrate in DMSO, 5 μl of the dialyzed protein preparation, and 3 μl 10 mM DTT. The reaction proceeded at 28 degrees Celsius for 2.5 hours shaking gently before stopping by the addition of 50 μl chloroform:methanol (2:1). The aqueous phase was extracted three more times with chloroform methanol and the solvent phases were pooled. The extracts were dried down at 60 degrees Celsius and resuspended in 40 μl of chloroform:methanol. The aqueous phase was dried down also and resuspended in water. A silica-gel TLC plate was loaded with 15 μl of the extracts and chromatographed with chloroform:methanol:water (13:6:1) against standards.
The acceptor substrates tested were β-amyrin-arabinoside, benzoic acid and salicylic acid. The sugars donors tested were D-glucose and L-arabinose.
To confirm the chemical structures of the products visualized by the radioactive assay a non-radioactive LC-MS assay was developed. […] Reactions were stopped by the addition of 100% methanol, which was then evaporated from the reaction at 50 degrees Celsius, and were analysed by LC/MS/MS using reversed-phase chromatography. […]

The record followed here is patent publication US8614369B2, “Enzymes involved in triterpene synthesis” (Plant Bioscience Limited, priority 2007, dated 2013).

B1: AsGT2: family 1 glucosyltransferase from Avena strigosa (SEQ ID NO:6), expressed in E. coli and purified (protein, listed as Avena strigosa)
chain: MGAEWEHVSDIHVLLLPYPVQGHINPMLQFGKRLAHIGGVGVRCTLAITPYLLRQCQDPCPGAVHLVEISDGFDSAGFEEVGDVAAYLAGMESAGSRTLDELLRSEAEKGRPIHAVVYDAFLQPWVPRVARLHGAACVSFFTQAAAVNVAYSRRVGKIEEGLPAGFEAEDLPTFLTLPLPYQDMLLSQFVGLDAVDHVLVNSFHELQPQESAYMESTWGAKTVGPTVPSAYLDKRITDDVSYGFHLYTPMTATTKAWLDAQPPRSVTYVSFGSMATPGPTEMAEMAEGLHSSGKAFLWVVRASEASKIPDGFQERVGGRGLVVTWVAQLEVLAHGAIGCFVTHCGWNSTMEALGAGVPMVAVPQWSDQPTNAKFVEDVWCVGVRARRDPEGVVRREELERCIREVTGDDKYACNALDWKEKSKRAMSQGGSSDMNITEFLQALRRSRKSYEAKPIEPLLVGLDA
B1: the “Activity of AsGT2 towards Salicylate, L-Ara” value is recorded as “+”.
